# How the values were obtained:
# FLAG-MBP-WT human TRPA1 = FLAG-MBP-WT human TRPA1 (human, UniProt O75762 1-1119); test: pull-down + co-IP
# SEC = target: the molecule itself; test: SEC
# [1] = target: 3xFLAG-tagged WT human TRPA1 (human, UniProt O75762 1-1119); test: co-IP + SEC
Binder,stoichiometry N (FLAG-MBP-WT human TRPA1),stoichiometry N (SEC),stoichiometry N [1]
"Strep-MBP-R919* human TRPA1 (domain or fragment, UniProt O75762 1-918, looked up) MKRSLRKMWRPGEKKEPQGVVYEDVPDDTEDFKESLKVVFEGSAYGLQNFNKQKKLKRCDDMDTFFLHYAAAEGQIELMEKITRDSSLEVLHEMDDYGNTPLHCAVEKNQIESVKFLLSRGANPNLRNFNMMAPLHIAVQGMNNEVMKVLLEHRTIDVNLEGENGNTAVIIACTTNNSEALQILLKKGAKPCKSNKWGCFPIHQAAFSGSKECMEIILRFGEEHGYSRQLHINFMNNGKATPLHLAVQNGDLEMIKMCLDNGAQIDPVEKGRCTAIHFAATQGATEIVKLMISSYSGSVDIVNTTDGCHETMLHRASLFDHHELADYLISVGADINKIDSEGRSPLILATASASWNIVNLLLSKGAQVDIKDNFGRNFLHLTVQQPYGLKNLRPEFMQMQQIKELVMDEDNDGCTPLHYACRQGGPGSVNNLLGFNVSIHSKSKDKKSPLHFAASYGRINTCQRLLQDISDTRLLNEGDLHGMTPLHLAAKNGHDKVVQLLLKKGALFLSDHNGWTALHHASMGGYTQTMKVILDTNLKCTDRLDEDGNTALHFAAREGHAKAVALLLSHNADIVLNKQQASFLHLALHNKRKEVVLTIIRSKRWDECLKIFSHNSPGNKCPITEMIEYLPECMKVLLDFCMLHSTEDKSCRDYYIEYNFKYLQCPLEFTKKTPTQDVIYEPLTALNAMVQNNRIELLNHPVCKEYLLMKWLAYGFRAHMMNLGSYCLGLIPMTILVVNIKPGMAFNSTGIINETSDHSEILDTTNSYLIKTCMILVFLSSIFGYCKEAGQIFQQKRNYFMDISNVLEWIIYTTGIIFVLPLFVEIPAHLQWQCGAIAVYFYWMNFLLYLQRFENCGIFIVMLEVILKTLLRSTVVFIFLLLAFGLSFYILLNLQDPFSSPLLSIIQTFSMMLGDINY",1.3 R919* subunits per WT subunit,–,–
"GFP-tagged WT human TRPA1 (natural protein, UniProt O75762 1-1119, looked up) MKRSLRKMWRPGEKKEPQGVVYEDVPDDTEDFKESLKVVFEGSAYGLQNFNKQKKLKRCDDMDTFFLHYAAAEGQIELMEKITRDSSLEVLHEMDDYGNTPLHCAVEKNQIESVKFLLSRGANPNLRNFNMMAPLHIAVQGMNNEVMKVLLEHRTIDVNLEGENGNTAVIIACTTNNSEALQILLKKGAKPCKSNKWGCFPIHQAAFSGSKECMEIILRFGEEHGYSRQLHINFMNNGKATPLHLAVQNGDLEMIKMCLDNGAQIDPVEKGRCTAIHFAATQGATEIVKLMISSYSGSVDIVNTTDGCHETMLHRASLFDHHELADYLISVGADINKIDSEGRSPLILATASASWNIVNLLLSKGAQVDIKDNFGRNFLHLTVQQPYGLKNLRPEFMQMQQIKELVMDEDNDGCTPLHYACRQGGPGSVNNLLGFNVSIHSKSKDKKSPLHFAASYGRINTCQRLLQDISDTRLLNEGDLHGMTPLHLAAKNGHDKVVQLLLKKGALFLSDHNGWTALHHASMGGYTQTMKVILDTNLKCTDRLDEDGNTALHFAAREGHAKAVALLLSHNADIVLNKQQASFLHLALHNKRKEVVLTIIRSKRWDECLKIFSHNSPGNKCPITEMIEYLPECMKVLLDFCMLHSTEDKSCRDYYIEYNFKYLQCPLEFTKKTPTQDVIYEPLTALNAMVQNNRIELLNHPVCKEYLLMKWLAYGFRAHMMNLGSYCLGLIPMTILVVNIKPGMAFNSTGIINETSDHSEILDTTNSYLIKTCMILVFLSSIFGYCKEAGQIFQQKRNYFMDISNVLEWIIYTTGIIFVLPLFVEIPAHLQWQCGAIAVYFYWMNFLLYLQRFENCGIFIVMLEVILKTLLRSTVVFIFLLLAFGLSFYILLNLQDPFSSPLLSIIQTFSMMLGDINYRESFLEPYLRNELAHPVLSFAQLVSFTIFVPIVLMNLLIGLAVGDIAEVQKHASLKRIAMQVELHTSLEKKLPLWFLRKVDQKSTIVYPNKPRSGGMLFHIFCFLFCTGEIRQEIPNADKSLEMEILKQKYRLKDLTFLLEKQHELIKLIIQKMEIISETEDDDSHCSFQDRFKKEQMEQRNSRWNTVLRAVKAKTHHLEP",–,4,4
